# Experimental data published in patent US20260258084A1, “New Peptides as Selective IL-23 Receptor Antagonists” (Sanofi, priority 2022, published 2026).
# Starred links: 1 amine or outer side, 2 acyl side, 3 side chain; linkers in the order of their positions; H or OH if unused. Positions of bridges follow the written chain, without caps; N, C: chain ends. Non-standard residues stand in square brackets, D forms with d. No end group written: not given here. Yde = (2S)-2-amino-3-[4-[2-(dimethylamino)ethoxy]phenyl]propanoic acid, CN(C)CCOc1ccc(C[C@H](N[*:1])C(=O)[*:2])cc1; Trp(7-Me) = Cc1cccc2c(C[C@H](N)C(=O)O)c[nH]c12; 2Nal = N[C@@H](Cc1ccc2ccccc2c1)C(=O)O; 3Pal = N[C@@H](Cc1cccnc1)C(=O)O; Dad = desamino-aspartamic acid; αMeL = CC(C)C[C@](C)(N)C(=O)O; Thp = NC1(C(=O)O)CCOCC1; Abu = CC[C@H](N)C(=O)O; Aib = CC(C)(N)C(=O)O; Ava = NCCCCC(=O)O; Sar = CNCC(=O)O
# B1: Compound of SEQ ID NO: 103 (peptide)
# peptide: [Dad]CNT[Trp(7-Me)]K(Ac)C[Yde][2Nal][αMeL]KN[3Pal][Sar]-NH2
# modifications: lactam (positions not given here); disulfide 2-7; not fully specified (bridges); printed as Dad(§1)-C(@2)-N-T-Wim-K[Ac]-C(@2)-Yde-Nal-Mle-K(§1)-N-Pal-Sar-NH2
# B2: Compound of SEQ ID NO: 102 (peptide)
# peptide: [Dad]CNT[Trp(7-Me)]K(Ac)C[Yde][2Nal][Thp]KN[3Pal][Sar]-NH2
# modifications: lactam (positions not given here); disulfide 2-7; not fully specified (bridges); printed as Dad(§1)-C(@2)-N-T-Wim-K[Ac]-C(@2)-Yde-Nal-Thp-K(§1)-N-Pal-Sar-NH2
# B3: Compound of SEQ ID NO: 106 (peptide)
# peptide: [Dad]CK[Trp(7-Me)]K(Ac)C[Yde][2Nal][αMeL]KN[3Pal][Sar]-NH2
# modifications: lactam (positions not given here); disulfide 2-6; not fully specified (residue 3, bridges); printed as Dad(§1)-C(§3)(@2)-K[aAc](@3)-Wim-K[Ac]-C(@2)-Yde-Nal-Mle-K(§1)-N-Pal-Sar-NH2; also: K[aAc]: Cys2 bonded to epsilon-NH2 of acetylated Lys3, acetyl presumably on alpha-amine
# B4: Compound of SEQ ID NO: 105 (peptide)
# peptide: [Dad]CK[Trp(7-Me)]K(Ac)C[Yde][2Nal][Thp]KN[3Pal][Sar]-NH2
# modifications: lactam (positions not given here); disulfide 2-6; not fully specified (residue 3, bridges); printed as Dad(§1)-C(§3)(@2)-K[aAc](@3)-Wim-K[Ac]-C(@2)-Yde-Nal-Thp-K(§1)-N-Pal-Sar-NH2; also: K[aAc]: Cys2 bonded to epsilon-NH2 of acetylated Lys3, acetyl presumably on alpha-amine
# B5: Compound of SEQ ID NO: 8 (peptide)
# peptide: [Ava]CNTWQC[Yde][2Nal][Aib]ENN-NH2
# modifications: lactam (positions not given here); disulfide 2-7; not fully specified (bridges); printed as Apt(§1)-C(@2)-N-T-W-Q-C(@2)-Yde-Nal-Aib-E(§1)-N—N—NH2
# B6: Compound of SEQ ID NO: 122 (peptide)
# peptide: [Dad][Abu]K[Trp(7-Me)]K(Ac)C[Yde][2Nal][Thp]KN[3Pal][Sar]-NH2
# modifications: lactam (positions not given here); thioether 2-6; not fully specified (residue 3, bridges); printed as Dad(§1)-Abu(§3)(@2)-K[aAc](@3)-Wim-K[Ac]-C(@2)-Yde-Nal-Thp-K(§1)-N-Pal-Sar-NH2; also: K[aAc]: Abu2 bonded to epsilon-NH2 of acetylated Lys3, acetyl presumably on alpha-amine
# B7: Compound of SEQ ID NO: 104 (peptide)
# peptide: [Dad]CK[Trp(7-Me)]K(Ac)C[Yde][2Nal][Aib]KN[3Pal][Sar]-NH2
# modifications: lactam (positions not given here); disulfide 2-6; not fully specified (residue 3, bridges); printed as Dad(§1)-C(§3)(@2)-K[aAc](@3)-Wim-K[Ac]-C(@2)-Yde-Nal-Aib-K(§1)-N-Pal-Sar-NH2; also: K[aAc]: Cys2 bonded to epsilon-NH2 of acetylated Lys3, acetyl presumably on alpha-amine
# Target: T1, IL-23 receptor on the surface of HEK-Blue IL-23 cells (UniProt Q5VWK5 24-629, limits assumed)
# T1 sequence (looked up): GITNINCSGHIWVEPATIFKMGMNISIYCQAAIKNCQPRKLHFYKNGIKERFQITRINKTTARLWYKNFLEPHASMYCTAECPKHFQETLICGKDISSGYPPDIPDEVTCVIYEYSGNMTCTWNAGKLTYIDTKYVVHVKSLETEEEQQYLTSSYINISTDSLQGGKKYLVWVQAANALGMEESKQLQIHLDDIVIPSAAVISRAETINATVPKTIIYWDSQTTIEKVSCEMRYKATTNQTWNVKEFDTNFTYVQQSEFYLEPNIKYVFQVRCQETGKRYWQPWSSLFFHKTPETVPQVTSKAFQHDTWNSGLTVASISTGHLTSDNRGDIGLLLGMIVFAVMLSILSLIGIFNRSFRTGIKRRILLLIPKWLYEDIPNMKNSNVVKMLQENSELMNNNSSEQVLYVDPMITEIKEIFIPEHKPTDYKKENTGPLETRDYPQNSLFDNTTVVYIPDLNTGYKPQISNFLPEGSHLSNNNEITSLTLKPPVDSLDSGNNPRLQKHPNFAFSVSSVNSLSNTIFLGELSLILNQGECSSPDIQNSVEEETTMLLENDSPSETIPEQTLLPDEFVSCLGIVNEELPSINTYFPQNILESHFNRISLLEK
# Experiment: cell-based or functional assay
row,Binder,pSTAT3 (nM)
1,B1,0.11 nM
2,B2,0.09 nM
3,B3,0.13 nM
4,B4,0.1 nM
5,B5,5.54 nM
6,B6,0.37 nM
7,B7,0.1 nM
